Consider 9 proteins from publication PMC7018833, “Siroheme synthase orients substrates for dehydrogenase and chelatase activities in a common active site” (Nature Communications, 2020).

Substitutions are numbered along the chain they refer to. In names and notes the source's numbering stands.

Sequences and labels used below:
B1: S128A S. enterica siroheme synthase (CysG) (enzyme)
chain: MDHLPIFCQLRDRDCLIVGGGDVAERKARLLLEAGARLTVNALTFIPQFTVWANEGMLTLVEGPFDETLLDSCWLAIAATDDDTVNQRVSDAAESRRIFCNVVDAPKAASFIMPSIIDRSPLMVAVSAGGTSPVLARLLREKLESLLPQHLGQVARYAGQLRARVKKQFATMGERRRFWEKFFVNDRLAQSLANADEKAVNATTERLFSEPLDHRGEVVLVGAGPGDAGLLTLKGLQQIQQADIVVYDRLVSDDIMNLVRRDADRVFVGKRAGYHCVPQEEINQILLREAQKGKRVVRLKGGDPFIFGRGGEELETLCHAGIPFSVVPGITAASGCSAYSGIPLTHRDYAQSVRLVTGHLKTGGELDWENLAAEKQTLVFYMGLNQAATIQEKLIAFGMQADMPVALVENGTSVKQRVVHGVLTQLGELAQQVESPALIIVGRVVALRDKLNWFSNH
notes: also called S128A-CysG; source: E. coli LMG194 (pBAD vector), purified (Ni-NTA, anion-exchange, size exclusion chromatography)
B2: D104A/S128A CysG (enzyme)
chain: B1 chain with D104A
notes: source: E. coli LMG194 (pBAD vector), purified (Ni-NTA, anion-exchange, size exclusion chromatography)
B3: R260A/S128A CysG (enzyme)
chain: B1 chain with R260A
notes: as for B2
B4: D104N/S128A CysG (enzyme)
chain: B1 chain with D104N
notes: as for B2
B5: D262A/S128A CysG (enzyme)
chain: B1 chain with D262A
notes: as for B2
B6: D262N/S128A CysG (enzyme)
chain: B1 chain with D262N
notes: as for B2
B7: R261A/S128A CysG (enzyme)
chain: B1 chain with R261A
notes: as for B2
B8: P133G/S128A CysG (enzyme)
chain: B1 chain with P133G
notes: as for B2
B9: P133H/S128A CysG (enzyme)
chain: B1 chain with P133H
notes: as for B2

This data set concerns the molecule itself. Put plainly: crystal structure.
With B1, the binding result is “binds”.

B2: the binding result was “binds”.

B3: the binding result is reported as “binds”.

As to B4, the binding result is given as “binds”.

Take B5: the binding result was “binds”.

In the case of B6, the binding result is “binds”.

B7: the binding result is listed as “binds”.

Regarding B8, the binding result was “binds”.

In the case of B9, the binding result is “binds”.
